Results on one molecule are retold here after article PMC3563628, “Prevalence, Specificity and Determinants of Lipid-Interacting PDZ Domains from an In-Cell Screen and In Vitro Binding Experiments” (PLoS ONE, 2013).

Assay [1] is described as follows: SPR equilibrium binding of his-tagged PDZ domains to various PtdInsPs species. The note with it: recombinant PDZ domain over PtdInsPs liposomes.
Assay [2] can be described thus: SPR equilibrium binding of his-tagged PDZ domains to PtdIns(4,5)P2 liposomes. The note with it: SPR equilibrium analysis, 5% PtdIns(4,5)P2 in DOPC liposomes, 25°C, pH 7.2; read-out: KD app PtdIns(4,5)P2.
Assay [3] deals with C-terminal peptide of usher (FTDTHL). The assay can be described thus: Equilibrium peptide binding titration followed by intrinsic tryptophan fluorescence. The note with it: Y167W mutation introduced as fluorescent probe; protein 3 µM; 25°C, pH 7.2. From the text: Given the overall low PtdInsPs specificities, and often modest PtdInsPs affinities, it is unlikely that PtdInsPs bindings alone target the PDZ domains to their defined subcellular compartments. Plausibly, peptide interactions are also involved in controlling the subcellular targeting. To address the interplay between PtdInsPs and peptide-binding we chose DFNB31_1 and CASK as models, taking two of the PDZ domains with well-defined cognate peptides. Cognate peptide ligands were the C-terminal peptides of usher (FTDTHL) for DFNB31_1 [50] and the TKEFYA peptide of syndecan-2 for CASK [51]. We measured the PDZ-peptide affinities by a fluorescence-based approach (Fig. 4E), by engineering Trp into the PDZ scaffolds and following the interactions by changes in intrinsic fluorescence, a strategy previously established for other PDZ domains (KD-values: DFNB31_1/Y167W for FTDTHL 46±6 µM; CASK/I157W for TKEFYA 280±20 µM), [52]. We then determined the apparent PtdIns(4,5)P2 affinities in presence of a (close to) saturating concentration of respective peptide (1 mM). The FTDTHL peptide appeared to compete for DFNB31_1-PtdIns(4,5)P2 interactions (KD ^PtdIns(4,5)P2 in presence of peptide >30 µM, Fig. 4F), which might indicate overlapping binding sites. […] We have previously reported on competitive binding by peptide and PtdIns(4,5)P2 with CASK [13]. However, in these experiments the peptide was linked to sepharose beads and PtdIns(4,5)P2 was present on micelles, which made it more difficult for the PDZ domain to simultaneously interact with the two ligands.
Spectrofluorimetric measurements were performed at 25°C in 25 mM HEPES, 150 mM NaCl, pH 7.2 and 1 mM beta-mercaptoethanol in a Carry Eclipse Spectrofluorimeter (Varian). The peptides corresponded to the C-termini of syndecan-2 (TKEFYA) and usher (FTDTHL) and were of high purity (purity >95%, GeneCust), and the experiment were performed and analyzed as described previously. Urea induced equilibrium unfolding experiments were performed using 1 µM of proteins (excitation 280 nm emission 320–380 nm) and the data fitted by a standard two-state model.

The nature of assay [4]: SPR binding to PS liposomes. Conditions: 10% PS in DOPC, 100% DOPC as reference. From the text:
(§1) As an alternative in vitro approach we performed lipid blot assays using commercially available membranes pre-spotted with PtdIns, PtdIns4P, PtdIns(4,5)P2 and PtdIns(3,4,5)P3 as well as other abundant lipids (Fig. 4B–C). IL16_3 and PDZD2_3, were excluded from this analysis due to their high binding to the blank immobilized spot. […] Other PtdInsPs-PDZ interactions were confirmed. Discrepancy between SPR and lipid blot approaches can be easily explained by the fact that the latter method is highly koff-dependent. […] We therefore performed SPR experiments with five selected PDZ domains (CASK, DFNB31_1, MAGI1_6, MAGI3_3 and SLC9A3R2_1) and two selected lipids, PS and PE, embedded in DOPC liposomes (10% PS or 40% PE in a DOPC using 100% DOPC as reference). […] We have previously reported that weak electrostatic interactions with PS reinforce the interactions of the second PDZ domain of Polychaetoid with PtdIns(4,5)P2 containing liposomes. We therefore investigated, for the same five PDZ domains, how the apparent PtdIns(4,5)P2 affinities were affected by presenting the lipid in the background of liposomes mimicking biological membrane lipid composition ([…], 20% PS, 40% PE and 5% PtdIns(4,5)P2).
(§2) SPR experiments were performed in a BiacoreT100 (GE Healthcare) at 25°C in 25 mM HEPES, 150 mM NaCl, pH 7.2 and 1 mM beta-mercaptoethanol with a flow rate of 30 µl/min. […]
For orientation: Surface plasmon resonance follows binding to a sensor surface in real time, without labels.

Assay [5] in a line: SPR binding to PtdIns(4,5)P2 in composite liposomes mimicking biological membrane. The note with it: 30% PC, 20% PS, 40% PE and 5% PtdIns(4,5)P2.
Text: as §1, §2

A short description of assay [6]: SPR binding to PE liposomes. The note with it: 40% PE in DOPC, 100% DOPC as reference.
Text: as §1, §2

B1: DFNB31_1: recombinant his-tagged first PDZ domain of human DFNB31 (protein)
chain: GEVRLVSLRRAKAHEGLGFSIRGGSEHGVGIYVSLVEPGSLAEKEGLRVGDQILRVNDKSLARVTHAEAVKALKGSKKLVLSVYSAGRI
modifications: left off: His6, N-terminal, state not stated
notes: recombinant his-tagged first PDZ domain of human DFNB31
As to B1, in assay [1], the “PtdInsPs binding in vitro, in words” value was “high-affinities”. In addition, the Kd in assay [2] came to 7.8 ± 2 µM; in assay [3], 46 ± 6 µM; in assay [5], 2.7 ± 1 µM. Also, in assay [4], the “PS binding, in words” value is listed as “low affinity interactions”. For the same molecule, the “PE binding, in words” value in assay [6] is on record as “did not observe any detectable PDZ-PE binding”.
